Measured values published in paper PMC11672532.

Biological target: c-Met ((A549 lung cancer cells)) (UniProt P08581)
Assay: flow cytometry on cells
Details: 5' and 3' cholesterol on ASO strand; Intact A549 or HeLa cells, FAM-labeled DNA, flow cytometry (30 min in Fig S8); binding buffer and temperature not given in the material

Chain of c-Met ((A549 lung cancer cells)) (P08581 25-1390): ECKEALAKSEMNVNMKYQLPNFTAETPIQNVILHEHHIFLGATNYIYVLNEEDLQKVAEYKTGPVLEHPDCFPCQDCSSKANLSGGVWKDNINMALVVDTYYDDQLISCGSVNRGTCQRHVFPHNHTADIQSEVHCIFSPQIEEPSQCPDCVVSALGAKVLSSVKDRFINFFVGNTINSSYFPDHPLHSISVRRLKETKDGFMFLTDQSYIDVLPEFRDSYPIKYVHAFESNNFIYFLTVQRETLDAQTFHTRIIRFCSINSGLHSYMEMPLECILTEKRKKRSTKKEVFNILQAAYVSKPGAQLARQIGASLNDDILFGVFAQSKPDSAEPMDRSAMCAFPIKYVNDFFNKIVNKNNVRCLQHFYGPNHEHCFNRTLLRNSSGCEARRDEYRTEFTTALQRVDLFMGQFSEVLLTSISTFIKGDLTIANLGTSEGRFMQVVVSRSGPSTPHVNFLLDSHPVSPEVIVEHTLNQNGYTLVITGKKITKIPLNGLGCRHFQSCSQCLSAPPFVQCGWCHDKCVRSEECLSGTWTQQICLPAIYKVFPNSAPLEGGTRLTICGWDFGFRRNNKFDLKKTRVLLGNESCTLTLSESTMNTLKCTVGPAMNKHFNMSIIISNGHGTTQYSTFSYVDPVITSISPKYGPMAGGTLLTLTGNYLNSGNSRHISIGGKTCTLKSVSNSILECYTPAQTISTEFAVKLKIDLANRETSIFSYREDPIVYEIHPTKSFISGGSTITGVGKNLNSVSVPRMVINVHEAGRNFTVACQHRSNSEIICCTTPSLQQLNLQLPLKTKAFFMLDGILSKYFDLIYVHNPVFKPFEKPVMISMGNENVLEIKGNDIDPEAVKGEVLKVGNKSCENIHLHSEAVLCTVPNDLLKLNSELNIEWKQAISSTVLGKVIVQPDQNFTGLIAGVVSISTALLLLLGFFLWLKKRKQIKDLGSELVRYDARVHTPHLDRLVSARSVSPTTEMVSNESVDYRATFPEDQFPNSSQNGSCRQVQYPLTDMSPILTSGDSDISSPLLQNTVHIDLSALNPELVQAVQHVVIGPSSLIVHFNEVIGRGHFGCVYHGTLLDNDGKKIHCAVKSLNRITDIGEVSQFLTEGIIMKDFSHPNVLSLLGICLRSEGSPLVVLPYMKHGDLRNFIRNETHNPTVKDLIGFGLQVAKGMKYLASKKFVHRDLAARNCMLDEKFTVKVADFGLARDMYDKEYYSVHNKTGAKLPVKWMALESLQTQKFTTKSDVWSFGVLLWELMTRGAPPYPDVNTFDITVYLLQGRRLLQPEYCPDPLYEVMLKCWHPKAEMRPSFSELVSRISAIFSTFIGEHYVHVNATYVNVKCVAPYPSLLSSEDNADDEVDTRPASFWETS

**Q.** How did the binding signal (fold (A549 / HeLa fluorescence)) turn out when “TGGATGGTAGCTCGGTCGGGGTGGGTGGGTTGGCAAGTCT / GGTGTCACAGGCGGGACCCCCGACCGA / GTCCCGCCTGTGACACCTCCCGCCTGTGACATGCATTTTTTTTCCCGCCTGTGACATGCATTGTCCCGCCTGTGACACC / CAACCCACCCGGTGTCACAGGCGGGAC [NT-Ch2-Apt (DNA nanotweezer)]” was run?
**A.** 2.5
